Source: patent US20220211860A1, “PEPTIDE DERIVATIVES AND CONJUGATES THEREOF FOR TREATING CANCER” (priority 2019, published 2022)
Where “and” joins values, the source holds several entries; their conditions need not be identical. Equal entries are not always repeated.

Assays:
MDA-MB-231 [1] = test: In vitro uptake in TNBC cells versus normal breast cells (confocal LSM); format: cell-based, human; conditions: 1 μM, 18 h; MDA-MB-231 compared to normal breast cells (MCF-10A and HMEC)
Method: FIGS. 7A and 7B: In vitro uptake study of LD5-me-vc-PABC-MMAE in TNBC cell line and normal breast cells. (A) MDA-MB-231 as a TNBC cell model, MCF-10A and HMEC as normal breast cells were treated with 1 μM of LD5-me-vc-PABC-MMAE (LM) for 18 h. LM was stained using monoclonal primary antibody specific for LHRH and secondary antibody conjugated with Rhodamine and detected by LEICA SPE2 confocal LSM. (B) The LM signal intensity was measured by Fiji J software in normal breast cells (HMEC and MCF-10A) and TNBC cell model (MDA-MB-231). […] The signal intensity in these cell lines were assessed by one-way ANOVA followed by Tukey's multiple comparisons test (****p<0.0001). Error bars are standard deviations (STDV), n=8 (3 independent repeats).
The uptake of LD5-me-vc-PABC-MMAE by TNBC cells was examined using the TNBC cell line (MDA-MB-231) which overexpresses LHRH-R. The uptake was compared with normal breast cells (LHRH-R negative control). LD5-me-vc-PABC-MMAE was incubated with […] for 18 h, and intracellular uptake of the conjugate was monitored using confocal LSM (FIG. 7A).
This was supported by quantitative comparisons of the intracellular uptake of LD5-mc-vc-PABC-MMAE in LHRH-R positive and negative cells (FIG. 7B).

[2] = In vitro stability (release of free MMAE, LC/MS), cell culture media; format: in vitro ADME; conditions: c-media, 1 μM, 37° C., 10 days
Method: (§1) FIG. 11: Stability of LHRHD-(mc-vc-PABC)-MMAE (i.e. LD5-mc-vc-PABC-MMAE) in human plasma, mouse plasma, and cell culture media (c-media). The stability was measured based on the presence of free MMAE detected in the samples by LC-MS at each time point relative to time 0. Error Bars are standard deviations (STDV), p>0.05 and n=9 (mean is calculated from samples in triplicate in 3 independent experiments).
(§2) The metabolic stability of LD5-(mc-vc-PABC)-MMAE was investigated in cell culture media (c-media), human and mouse plasma. An LC/MS method was developed to detect both free MMAE and the presence of any degraded species from the whole construct, LD5-(mc-vc-PABC)-MMAE. To evaluate the stability of the valine-citrulline linkage, LD5-(mc-vc-PABC)-MMAE at 1 μM was incubated in c-media, human and mouse plasma at 37° C. for a period of 10 days. Aliquots were taken at pre-determined time intervals (t=0, 1, 2, 4, 7, 10 days) and analysed by LC/MS for the release of free MMAE.

[3] = In vitro metabolic stability (release of free MMAE, LC/MS), mouse plasma; format: in vitro ADME; conditions: 1 μM, 37° C., 10 days
Method: as §1, §2

[4] = In vitro metabolic stability (release of free MMAE, LC/MS), human plasma; format: in vitro ADME; conditions: 1 μM, 37° C., 10 days
Method: as §1, §2

female NOD/SCID mice = test: Phase I: single-dose MTD in mice; format: in vivo; conditions: IV 10 mg/kg, 72 hr, individual animals, listed as LHRHD-(mc-vc-PABC)-MMAE
LHRH-R = biological target: T1, LHRH-R (Homo sapiens, UniProt P30968); test: Duolink proximity ligation assay (PLA) in MDA-MB-231; format: binding
T1 construct: endogenous in cells; host or cells: MDA-MB-231
T1 sequence (P30968 1-328): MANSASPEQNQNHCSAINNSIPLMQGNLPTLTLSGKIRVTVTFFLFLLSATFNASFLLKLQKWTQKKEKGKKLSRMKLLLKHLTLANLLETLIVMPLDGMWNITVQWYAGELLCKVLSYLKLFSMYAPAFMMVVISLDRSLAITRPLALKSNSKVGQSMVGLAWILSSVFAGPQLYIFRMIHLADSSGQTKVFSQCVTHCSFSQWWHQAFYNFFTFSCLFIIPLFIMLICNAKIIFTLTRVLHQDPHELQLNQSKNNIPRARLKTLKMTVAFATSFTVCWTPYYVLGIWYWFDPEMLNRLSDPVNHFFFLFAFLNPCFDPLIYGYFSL
Method: FIG. 6: Proximity ligation assay was used to show the protein-protein interaction between LHRH-R and LHRH in MDA-MB-231 (TNBC cell model) treated with LD5-me-vc-PABC-MMAE (1 μM) compared to negative control (PBS). Stained nucleus (DAPI blue) and PLA signal (TexasRed) were detected by LEICA SPE2 confocal LSM.
The binding affinity of the LD5-me-vc-PABC-MMAE conjugate to LHRH receptors was investigated by DuoLink assay.
Proximity ligation assay (PLA) was used to determine the interaction between LHRH-R and LHRH in LD5-mc-vc-PABC-MMAE treated cells. Duolink® Proximity Ligation Assay (PLA) allows in situ detection of endogenous proteins, protein modifications, and protein interactions with high specificity and sensitivity. Protein targets can be readily detected and localized with single molecule resolution in unmodified cells and tissues. Typically, two primary antibodies raised in different species are used to detect two unique protein targets. PLA reagents were added to the fixed MDA-MB-231 cells after incubating these cells with the primary antibody specific for LHRH-R and LHRH.

MDA-MB-231 [5] = test: Uptake after silencing LHRH-R gene in MDA-MB-231; format: cell-based, human; conditions: MDA-MB-231, LHRH-R siRNA, 1 μM, 18 h
Method: FIGS. 10A and 10B: Uptake of LD5-me-vc-PABC-MMAE (LM) after silencing LHRH-R in MDA-MB-231 cells. The cells were treated with LHRH-R siRNA and co-transfected with fluorescent labelled siRNA negative control as transfection efficiency signal (FAM-transfection control). LHRH-R negative control refers to MDA-MB-231 cells that were not transfected with LHRH-R siRNA and FAM-transfection control. (A) Silenced LHRH-R cells and negative control cells were treated with LM (1 μM) for 18 h and LM signal was detected by immunocytochemistry with specific LHRH binding of primary antibody labelled by Rhodamine-conjugated secondary antibody. Immunocytochemical images were captured by LEICA SPE2 confocal LSM. (B) The LM signal intensity in both silenced LHRH-R and negative control was measured by Fiji J software. […] The data was analysed by unpaired t-test with Welch's correction (**** p<0.0001). Error bars are standard deviations (STDV), n=8 (3 independent repeats).
To further examine the role of LHRH-R in the uptake of LD5-me-vc-PABC-MMAE, LHRH-R expression was blocked by silencing their gene in MDA-MB-231 (TNBC cell model). This study was performed by co-transfection of siRNAs (RNAi-Mate transfection reagent and siRNA, GNRHR-homo-2242, GNRHR-homo-2701, and scrambled RNA were from GenePharma) and a fluorescently labelled negative control siRNA (FAM transfection efficiency control was from GenePharma).

CCNC(=O)[C@@H]1CCCN1C(=O)[C@H](CCCNC(=N)N)NC(=O)[C@H](CC(C)C)NC(=O)[C@@H](CCCCNC1CC(=O)N(CCCCCC(=O)N[C@H](C(=O)N[C@@H](CCCNC(N)=O)C(=O)Nc2ccc(COC(=O)N(C)[C@H](C(=O)N[C@H](C(=O)N(C)[C@@H]([C@@H](C)CC)[C@@H](CC(=O)N3CCC[C@H]3[C@H](OC)[C@@H](C)C(=O)N[C@H](C)[C@@H](O)c3ccccc3)OC)C(C)C)C(C)C)cc2)C(C)C)C1=O)NC(=O)[C@H](Cc1ccc(O)cc1)NC(=O)[C@H](CO)NC(=O)[C@H](Cc1c[nH]c2ccccc12)NC(=O)[C@H](Cc1c[nH]cn1)NC(=O)[C@@H]1CCC(=O)N1 (stereo partly drawn) [LD5-mc-vc-PABC-MMAE]
intracellular uptake (MDA-MB-231 [1]): significantly higher uptake | total drug released as MMAE [2]: less than 3% | total drug released as MMAE [3]: less than 5% | total drug released as MMAE [4]: less than 3% | total drug released as MMAE ([4]; listed as LHRHD-(mc-vc-PABC)-MMAE): around 3% | Body Weight (female NOD/SCID mice): 21 g and 20 g (2×) | binding affinity to LHRH receptors (DuoLink assay) (LHRH-R; MDA-MB-231, 1 μM): high binding affinity | interaction between LHRH-R and LHRH (PLA signal) (LHRH-R; fixed MDA-MB-231 cells, qualitative): confirmed interactions between LHRH-R and its ligand | uptake after silencing the LHRH-R gene (MDA-MB-231 [5]): significantly reduced
